Laboratory results as given in IntAct's records for PubMed 16979624.

What was measured:
home3_human HOMER3 = home3_human HOMER3 (UniProt Q9NSC5)
enah_human ENAH = enah_human ENAH (UniProt Q8N8S7)
Sequence of UniProt Q8N8S7 (Q8N8S7 whole entry): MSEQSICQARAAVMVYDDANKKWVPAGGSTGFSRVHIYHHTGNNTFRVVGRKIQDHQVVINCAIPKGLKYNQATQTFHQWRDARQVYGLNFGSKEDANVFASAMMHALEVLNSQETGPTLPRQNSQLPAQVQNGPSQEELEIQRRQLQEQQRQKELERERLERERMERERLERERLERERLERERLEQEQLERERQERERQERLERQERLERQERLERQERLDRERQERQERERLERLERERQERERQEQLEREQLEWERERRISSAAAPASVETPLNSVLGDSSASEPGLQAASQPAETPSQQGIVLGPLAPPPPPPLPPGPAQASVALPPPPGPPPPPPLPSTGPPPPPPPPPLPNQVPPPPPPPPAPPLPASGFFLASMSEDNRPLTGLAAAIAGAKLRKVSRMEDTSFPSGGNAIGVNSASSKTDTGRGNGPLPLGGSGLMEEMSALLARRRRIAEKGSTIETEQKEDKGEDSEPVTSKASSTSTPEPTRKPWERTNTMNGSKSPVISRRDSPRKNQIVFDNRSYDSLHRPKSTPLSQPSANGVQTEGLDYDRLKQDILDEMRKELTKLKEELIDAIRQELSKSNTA

Sequence of UniProt Q9NSC5 (Q9NSC5 whole entry): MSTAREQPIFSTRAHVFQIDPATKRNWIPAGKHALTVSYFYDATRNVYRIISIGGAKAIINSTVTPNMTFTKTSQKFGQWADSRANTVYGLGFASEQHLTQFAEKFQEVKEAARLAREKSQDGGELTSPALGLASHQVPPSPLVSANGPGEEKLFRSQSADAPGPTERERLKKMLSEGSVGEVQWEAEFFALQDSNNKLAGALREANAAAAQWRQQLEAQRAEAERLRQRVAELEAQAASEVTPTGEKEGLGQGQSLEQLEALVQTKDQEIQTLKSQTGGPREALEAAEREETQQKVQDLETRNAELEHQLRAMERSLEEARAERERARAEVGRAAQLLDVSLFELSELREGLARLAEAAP

Question: What does the source list for “Protocadherin Fat 1 (Homo sapiens), Q14517 P4438D”?
Answer: effect of a mutation on the interaction (home3_human HOMER3): disrupting interaction; effect of a mutation on the interaction (enah_human ENAH): disrupting interaction
